Usually Kd stands for the concentration at which binding is half-saturated. A high value points to weaker binding.

Common to all, as to conditions: both partners purified
Assay [1] has as its target T1, GST-NF1^PPQY (residues 2665-2687) (UniProt P21359-2 2665-2687).
T1 construct: Neurofibromin 1 (NF1), residues 2665-2687, holds the PPQY motif; also called GST-tagged NF1^PPQY; source: purified; not shown: GST, N-terminal, kept
T1 chain (looked up): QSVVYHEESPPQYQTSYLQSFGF
Briefly: pull-down; GST, GST-NF1^PPQY or GST-NF1^AAAA prebound on Glutathione Sepharose beads; increasing amounts of His-Sumo-YAP1^WW1 or His-Sumo-YAP1^WW2 added; 20 mM Tris pH 8.0, 150 mM NaCl, 2 h, 4 °C; eluted with 10 mM GSH; SDS-PAGE, Coomassie blue.

In assay [2] the target is T2, YAP1^WW1 (as used in ITC) (UniProt P46937 174-204).
T2 construct: Yes-associated protein 1 (YAP1), first WW domain; the label YAP1^WW1 is defined as residues 174-204 in the pull-down methods; The ITC methods name only YAP1^WW1
Put plainly: ITC; 25 °C, PEAQ-ITC; 10 mM NF1^PPQY peptide injected (20 injections of 2 μl) into 1 mM YAP1^WW1 or YAP1^WW2; 10 mM Tris pH 8.0, 100 mM NaCl; one-site binding model.

Assay [3] concerns the target T3, YAP1^WW2 (as used in ITC) (UniProt P46937 227-266).
T3 construct: Yes-associated protein 1 (YAP1), second WW domain; the label YAP1^WW2 is defined as residues 227-266 in the pull-down methods; The ITC methods name only YAP1^WW2
The assay is described as above.

B1: His-Sumo-YAP1^WW1 (residues 174-204) (domain or fragment, UniProt P46937 174-204, looked up)
chain: PAGWEMAKTSSGQRYFLNHIDQTTTWQDPRK
notes: Yes-associated protein 1 (YAP1), first WW domain, residues 174-204; source: purified; not shown: His, N-terminal, kept; Sumo, N-terminal, kept
With B1, the binding result in assay [1] was “binds”.

B2: His-Sumo-YAP1^WW2 (residues 227-266) (domain or fragment, UniProt P46937 227-266, looked up)
chain: SASGPLPDGWEQAMTQDGEIYYINHKNKTTSWLDPRLDPR
notes: Yes-associated protein 1 (YAP1), second WW domain, residues 227-266; source: purified; not shown: His, N-terminal, kept; Sumo, N-terminal, kept
Take B2: the binding result in assay [1] is listed as “binds”.

B3: NF1^PPQY peptide (residues 2671-2680: EESPPQYQTS) (peptide)
peptide: EESPPQYQTS
notes: also called NF1 peptides; source: synthetic peptide (Scilight-Peptide, China)
B3: the Kd in assay [2] was 320 µM; in assay [3] it was 346 µM.

(Values after paper PMC10163693, “The oncogenic role of NF1 in gallbladder cancer through regulation of YAP1 stability by direct interaction with YAP1” (Journal of Translational Medicine, 2023).)
